This note sets out measurements from article PMC4807272, “Structural Determinants of Oligomerization of the Aquaporin-4 Channel*” (The Journal of Biological Chemistry, 2016).

Numbering of substitutions follows the chain as printed. Numbers in names are those of the source.

Data set [1] addresses AQP4 TM1 compound mutant (I43A/I47A/L50A/L51A/I57A), C-terminal GFP fusion (UniProt P55087). In words: BN-PAGE and Western blotting, densitometry. As to conditions: Triton X-100-solubilized protein from HEK293 cells; 3 experimental repeats; read off a plot. In general terms: A western blot detects proteins with antibodies after separation by electrophoresis.
Target sequence in this assay (P55087 whole entry I47A/L50A/L51A/I57A, stated change not applied, the tested form may be a part): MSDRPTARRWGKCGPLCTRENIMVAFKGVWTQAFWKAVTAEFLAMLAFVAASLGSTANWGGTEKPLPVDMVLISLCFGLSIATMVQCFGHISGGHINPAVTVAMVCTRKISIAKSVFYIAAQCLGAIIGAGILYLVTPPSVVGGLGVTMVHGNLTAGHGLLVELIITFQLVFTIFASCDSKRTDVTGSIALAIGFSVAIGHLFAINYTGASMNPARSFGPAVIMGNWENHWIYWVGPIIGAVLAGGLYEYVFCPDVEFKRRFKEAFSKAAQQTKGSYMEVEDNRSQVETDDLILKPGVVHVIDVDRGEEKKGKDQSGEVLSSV
The target in data set [2] is wild-type human AQP1 (human) (UniProt P29972). Description: native gel or EMSA; BN-PAGE (8% bis-tris gel, pH 7.0, on ice) of whole-cell lysates of transfected HEK293 cells in 1% Triton X-100 BN lysis buffer, then immunoblot (anti-AQP4 or anti-GFP) and densitometry; self-association: tetramer, dimer, monomer bands.
Data set [3] concerns the target AQP4 TM1 compound mutant (I43A/I47A/L50A/L51A/I57A), C-terminal GFP fusion (UniProt P55087). The data set is described as above.
The target of data set [4] is AQP4 I43A, C-terminal GFP fusion (UniProt P55087). The description is as above.
The target is the same in data set [5]. In words: BN-PAGE and Western blotting, densitometry. Particulars: Triton X-100-solubilized protein from HEK293 cells; 3 experimental repeats; read off a plot.
Target sequence in this assay (P55087 whole entry, stated change not applied, the tested form may be a part): as the sequence (P55087 whole entry I47A/L50A/L51A/I57A, stated change not applied, the tested form may be a part) above, with A47I, A50L, A51L, A57I counted along it
Data set [6] concerns the molecule itself. In words: native gel or EMSA; BN-PAGE (8% bis-tris gel, pH 7.0, on ice) of whole-cell lysates of transfected HEK293 cells in 1% Triton X-100 BN lysis buffer, then immunoblot (anti-AQP4 or anti-GFP) and densitometry; self-association: tetramer, dimer, monomer bands. Background: In EMSA bound probe runs differently from free probe, usually more slowly.

“wild-type human AQP4, C-terminal GFP fusion (from UniProt P55087) I43A; I47A; L50A; L51A; I57A” registered an other: % tetrameric protein in data set [1] of 100%. Usually stoichiometry N stands for the number of molecules, sites or subunits per partner or assembly. As for “wild-type human AQP1 (from UniProt P29972 1-269) (natural protein)”, the stoichiometry N in data set [2] was found to be 4. Turning to “AQP4 TM1 compound mutant (I43A/I47A/L50A/L51A/I57A), C-terminal GFP fusion (from UniProt P55087 1-323) (natural protein)”, the stoichiometry N in data set [3] was 4. “AQP4 I43A, C-terminal GFP fusion (from UniProt P55087 1-323) (natural protein)” had a stoichiometry N in data set [4] of 4. Turning to “wild-type human AQP4, C-terminal GFP fusion (from UniProt P55087) I43A”, the other: % tetrameric protein in data set [5] was found to be 100%.

B1: wild-type AQP9 (natural protein, human, UniProt O43315 1-295, looked up)
chain: MQPEGAEKGKSFKQRLVLKSSLAKETLSEFLGTFILIVLGCGCVAQAILSRGRFGGVITINVGFSMAVAMAIYVAGGVSGGHINPAVSLAMCLFGRMKWFKLPFYVGAQFLGAFVGAATVFGIYYDGLMSFAGGKLLIVGENATAHIFATYPAPYLSLANAFADQVVATMILLIIVFAIFDSRNLGAPRGLEPIAIGLLIIVIASSLGLNSGCAMNPARDLSPRLFTALAGWGFEVFRAGNNFWWIPVVGPLVGAVIGGLIYVLVIEIHHPEPDSVFKTEQSEDKPEKYELSVIM
notes: aquaporin-9 (AQP9), human; The construct and its tag are not described; a GFP tag is surmised; source: HEK293, transfected, Triton X-100-extracted protein
For the molecule B1, in data set [6], the “stoichiometry N” value is 4.

B2: AQP3 P181S/Y182K/N183R (natural protein, human, UniProt Q92482 1-292, looked up)
chain: MGRQKELVSRCGEMLHIRYRLLRQALAECLGTLILVMFGCGSVAQVVLSRGTHGGFLTINLAFGFAVTLGILIAGQVSGAHLNPAVTFAMCFLAREPWIKLPIYTLAQTLGAFLGAGIVFGLYYDAIWHFADNQLFVSGPNGTAGIFATYPSGHLDMINGFFDQFIGTASLIVCVLAIVDSKRNPVPRGLEAFTVGLVVLVIGTSMGFNSGYAVNPARDFGPRLFTALAGWGSAVFTTGQHWWWVPIVSPLLGSIAGVFVYQLMIGCHLEQPPPSNEEENVKLAHVKHKEQI
notes: aquaporin-3 (AQP3), human; DPYNN changed to DSKRN; The construct and its tag are not described; a GFP tag is surmised; also called AQP3 DSKRN mutant; source: HEK293, transfected, extracted with Triton X-100
Regarding B2, in data set [6], the “stoichiometry N” value turned out to be 2.

B3: AQP3 P181E/Y182K/N183R (natural protein, human, UniProt Q92482 1-292, looked up)
chain: B2 chain with S181E
notes: aquaporin-3 (AQP3), human; DPYNN changed to DEKRN; The construct and its tag are not described; a GFP tag is surmised; also called AQP3 DEKRN mutant; source: HEK293, transfected, extracted with Triton X-100
Consider B3, for which, in data set [6], the “stoichiometry N” value came to 2.

B4: wild-type AQP10 (natural protein, human, UniProt Q96PS8 1-301, looked up)
chain: MVFTQAPAEIMGHLRIRSLLARQCLAEFLGVFVLMLLTQGAVAQAVTSGETKGNFFTMFLAGSLAVTIAIYVGGNVSGAHLNPAFSLAMCIVGRLPWVKLPIYILVQLLSAFCASGATYVLYHDALQNYTGGNLTVTGPKETASIFATYPAPYLSLNNGFLDQVLGTGMLIVGLLAILDRRNKGVPAGLEPVVVGMLILALGLSMGANCGIPLNPARDLGPRLFTYVAGWGPEVFSAGNGWWWVPVVAPLVGATVGTATYQLLVALHHPEGPEPAQDLVSAQHKASELETPASAQMLECKL
notes: aquaporin-10 (AQP10), human; The construct and its tag are not described; a GFP tag is surmised; source: HEK293, transfected, Triton X-100-extracted protein
On to B4, for which the “stoichiometry N” value in data set [6] turned out to be 4.
